According to US20250296996A1 (BROADWING BIO, published 2025):

T1: P62 (huANGPTL7-his) (human, UniProt O43827 27-346)
T1 construct: not shown: C-terminal short linker and His tag
T1 chain: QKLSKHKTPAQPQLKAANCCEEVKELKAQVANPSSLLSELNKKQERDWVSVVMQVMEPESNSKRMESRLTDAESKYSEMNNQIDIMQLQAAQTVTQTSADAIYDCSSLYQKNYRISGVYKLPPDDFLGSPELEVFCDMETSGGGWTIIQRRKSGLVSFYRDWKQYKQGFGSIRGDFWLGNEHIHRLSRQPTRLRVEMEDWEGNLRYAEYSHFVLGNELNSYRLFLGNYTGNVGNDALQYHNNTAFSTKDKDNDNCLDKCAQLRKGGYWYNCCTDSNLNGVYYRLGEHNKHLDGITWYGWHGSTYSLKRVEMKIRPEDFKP

T2: muANGPTL7-his (R&D Systems) (mouse, UniProt Q8R1Q3 22-337, limits assumed)
T2 construct: Bought protein; also called mouse ANGPTL7 protein
T2 sequence (looked up): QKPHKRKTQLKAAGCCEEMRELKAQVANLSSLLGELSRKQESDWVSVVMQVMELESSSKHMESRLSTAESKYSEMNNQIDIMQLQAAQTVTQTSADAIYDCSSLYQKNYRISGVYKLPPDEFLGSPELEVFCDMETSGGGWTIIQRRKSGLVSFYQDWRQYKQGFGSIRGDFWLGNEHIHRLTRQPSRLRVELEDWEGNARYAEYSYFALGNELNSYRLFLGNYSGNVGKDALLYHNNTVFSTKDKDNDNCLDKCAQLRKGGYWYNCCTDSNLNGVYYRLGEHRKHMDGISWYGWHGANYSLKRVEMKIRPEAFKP

T3: P60 (huANGPTL7-Fibrinogen-his) (human, UniProt O43827 129-343)
T3 construct: also called human ANGPTL7 fibrinogen domain; not shown: C-terminal short linker and His tag
T3 sequence: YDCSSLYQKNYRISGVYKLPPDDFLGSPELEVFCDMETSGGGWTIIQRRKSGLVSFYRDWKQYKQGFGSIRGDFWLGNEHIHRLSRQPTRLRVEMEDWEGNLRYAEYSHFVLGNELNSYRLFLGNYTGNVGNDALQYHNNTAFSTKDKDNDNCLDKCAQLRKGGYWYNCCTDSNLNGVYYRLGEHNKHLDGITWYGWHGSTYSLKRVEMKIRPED

T4: Pext-01 (huANGTPL7-FLAG multimer) (human, UniProt O43827 27-346)
T4 construct: also called PExt-1; human wild type ANGPTL7 multimer; not shown: FLAG tag
T4 sequence: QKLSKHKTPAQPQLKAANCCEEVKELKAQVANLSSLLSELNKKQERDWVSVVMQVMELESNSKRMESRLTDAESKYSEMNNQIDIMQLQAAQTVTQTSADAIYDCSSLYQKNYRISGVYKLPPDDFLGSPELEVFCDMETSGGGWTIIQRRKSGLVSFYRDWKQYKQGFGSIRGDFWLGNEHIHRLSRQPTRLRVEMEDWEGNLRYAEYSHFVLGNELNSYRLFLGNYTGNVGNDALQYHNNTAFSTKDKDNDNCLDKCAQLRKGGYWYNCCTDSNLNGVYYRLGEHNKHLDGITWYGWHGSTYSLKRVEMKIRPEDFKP

T5: P66 (rabbit ANGPTL7-his) (rabbit, UniProt G1T4P1 27-344)
T5 construct: mature; also called rabbit ANGPTL7 protein
T5 sequence: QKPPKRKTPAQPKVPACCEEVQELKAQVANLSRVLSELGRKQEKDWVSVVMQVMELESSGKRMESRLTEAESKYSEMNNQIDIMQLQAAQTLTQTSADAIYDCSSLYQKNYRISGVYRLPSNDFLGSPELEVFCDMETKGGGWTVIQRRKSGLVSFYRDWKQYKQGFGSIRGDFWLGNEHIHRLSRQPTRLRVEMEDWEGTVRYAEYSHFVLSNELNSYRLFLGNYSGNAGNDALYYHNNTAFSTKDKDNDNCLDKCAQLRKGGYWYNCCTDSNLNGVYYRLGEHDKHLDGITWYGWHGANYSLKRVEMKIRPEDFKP


Legend:
P62 (huANGPTL7-his) = molecular target: T1, P62 (huANGPTL7-his); assay: BLI Octet HTX; IgG on AHC sensor; P62 0.343-250 nM; global 1:1 fit
Protocol: Experiments were also conducted to determine the reactivity and dissociation constants (KD) of anti-ANGPTL7 antibodies with the human ANGPTL7-his protein. Binding experiments were performed on Octet HTX (ForteBio) in 1×PBS, pH 7.4, 0.1 mg/mi BSA, 0.05% Sodium Azide, and 0.02% Tween 20. To measure monovalent binding kinetics, antibodies at a concentration of 50 nM were loaded on pre-hydrated AHC biosensors for 5 min. The loaded sensors were dipped into monovalent P62 (huANGPTL7-his) at a range of concentration from 0.343-250 nM (a serial 3-fold dilution) for 5 min association, followed by 10 min dissociation.

[1] = molecular target: T2, muANGPTL7-his (R&D Systems); assay: BLI Octet HTX; IgG on AHC sensor; muANGPTL7-his at 200 nM; 1:1 fit
Protocol: (§1) Experiments were also conducted to determine the reactivity and dissociation constants (KD) of anti-ANGPTL7 antibodies with the mouse ANGPTL7 protein. Binding experiments were performed on Octet HTX (ForteBio) in 1×PBS, pH 7.4, 0.1 mg/mi BSA, 0.05% Sodium Azide, and 0.02% Tween 20. Antibodies at a concentration of 50 nM were loaded on pre-hydrated AHC biosensors for 5 mA. The loaded sensors were dipped into monovalent muANGPTL7-his (R&D Systems) at a concentration of 200 nM for 5 min of association, followed by 10 min of dissociation. […] Responses (nm) at the end of association were also determined (Table 5).

[2] = molecular target: T3, P60 (huANGPTL7-Fibrinogen-his); assay: BLI Octet HTX; IgG on AHC sensor; P60 at 200 nM; 1:1 fit
Protocol: (§2) ANGPTL7 Antibody Kinetics. Experiments were conducted to determine the reactivity and dissociation constants (KD) of anti-ANGPTL7 antibodies with the human fibrinogen domain of the ANGPTL7 protein. Binding experiments were performed on Octet HTX (ForteBio) in 1×PBS, pH 7.4, 0.1 mg/ml BSA, 0.05% Sodium Azide, and 0.02 Tween 20. Antibodies at a concentration of 50 nM were loaded on pre-hydrated AHC biosensors for 5 min. The loaded sensors were dipped into monovalent P60 (huANGPTL7-Fibrinogen-his) at a concentration of 200 nM for 5 min association, followed by 10 min dissociation. […] Responses (nm) at the end of association were also determined (Table 2).

[3] = molecular target: T3, P60 (huANGPTL7-Fibrinogen-his); assay: BLI Octet HTX; IgG on AHC sensor; P60 at 200 nM
Protocol: as §2

[4] = molecular target: T4, Pext-01 (huANGTPL7-FLAG multimer); assay: BLI Octet HTX; IgG on AHC sensor; Pext-01 at 100 nM; 1:1 fit; apparent KD
Protocol: Experiments were also conducted to determine the reactivity and dissociation constants (KD) of anti-ANGPTL7 antibodies with the human ANGPTL7 multimer protein. Binding experiments were performed on Octet HTX (ForteBio) in 1×PBS, pH 7.4, 0.1 mg/ml BSA, 0.05% Sodium Azide, and 0.02% Tween 20. Antibodies at a concentration of 50 nM were loaded on pre-hydrated AHC biosensors for 5 mi. The loaded sensors were dipped into Pext-01 (huANGTPL7-FLAG) at a concentration of 100 nM for 5 min of association, followed by 10 min of dissociation. […] Responses (nm) at the end of association were also determined (Table 7).

P66 (rabbit ANGPTL7-his) [5] = molecular target: T5, P66 (rabbit ANGPTL7-his); assay: BLI Octet HTX; IgG on AHC sensor; P66 at 200 nM; 1:1 fit
Protocol: as §1, with “([…])” for “(KD)”, “rabbit” for “mouse”, “Rx PBS,” for “1×PBS,”, “min.” for “mA.”, “P66 (rabbit ANGPTL7-his)” for “muANGPTL7-his (R&D Systems)”, “6).” for “5).”

[6] = molecular target: T2, muANGPTL7-his (R&D Systems); assay: BLI Octet HTX; IgG on AHC sensor; muANGPTL7-his at 200 nM
Protocol: as §1

P66 (rabbit ANGPTL7-his) [7] = molecular target: T5, P66 (rabbit ANGPTL7-his); assay: BLI Octet HTX; IgG on AHC sensor; P66 at 200 nM
Protocol: as §1, with “([…])” for “(KD)”, “rabbit” for “mouse”, “Rx PBS,” for “1×PBS,”, “min.” for “mA.”, “P66 (rabbit ANGPTL7-his)” for “muANGPTL7-his (R&D Systems)”, “6).” for “5).”

| Binder | binding result (P62 (huANGPTL7-his)) | Response [1] [nm] | Response [2] [nm] | binding result [3] | Response [4] [nm] | Kd (P66 (rabbit ANGPTL7-his) [5]) [nM] | Response (P66 (rabbit ANGPTL7-his) [5]) [nm] | binding result [6] | Kd [2] [nM] | binding result (P66 (rabbit ANGPTL7-his) [7]) | Kd [4] [nM] | Kd (P62 (huANGPTL7-his)) [nM] | koff (P62 (huANGPTL7-his)) [s⁻¹] | kon (P62 (huANGPTL7-his)) [M⁻¹ s⁻¹] | koff [2] [s⁻¹] | kon [2] [M⁻¹ s⁻¹] | koff (P66 (rabbit ANGPTL7-his) [5]) [s⁻¹] | kon (P66 (rabbit ANGPTL7-his) [5]) [M⁻¹ s⁻¹] |
| --- | --- | --- | --- | --- | --- | --- | --- | --- | --- | --- | --- | --- | --- | --- | --- | --- | --- | --- |
| ATX-P-447 (antibody, human IgG1, kappa, N297A, V domains shown, Full chains (VH + hIgG1-Agly-Fc)) VH: EVQLVESGGGLVQPGGSLRLSCAASGFTISDYDMHWVRQTTGKGLEWVSGIDPDGDTYYPGSLKGRFTISRENAKNSLYLQMNSLRAGDTAVYYCTRGEDSSSSEDAFDIWGQGTMVTVSS VL: not shown | binds | 0.12 | 0.08 | no binding (tested: 200 nM) | 0.91 | 3.33 | 0.65 | no binding (tested: 200 nM) |  |  |  |  |  |  |  |  |  |  |
| ATX-P-446 (antibody, human IgG1, kappa, N297A, V domains shown, Full chains (VH + hIgG1-Agly-Fc)) VH: EVQLVESGGGLVQPGGSLRLSCAASGFTLSSYDMHWVRQVIGKGLEWVSGIDPDGDTYYPGSVKGRFTISREDAKNSLYLQMNSLRAGDTAVYYCTRGEDNSSSEDAFDIWGQGTMVTVSS VL: not shown |  | 0.05 | 0.09 | no binding (tested: 200 nM) | 0.75 | 3.19 | 0.41 | no binding (tested: 200 nM) |  |  |  |  |  |  |  |  |  |  |
| ATX-P-429 (antibody, human IgG1, kappa, N297A, V domains shown, Full chains (VH + hIgG1-Agly-Fc)) VH: QVQLVQSGAEVKKPGASVKVSCKASGYTFSSYGISWVRQAPGQGLEWMGWISAYNGNTNYAQNLRGRVAMTTDTSTTTAYMELRSLRSDDTAVYYCARVSLVWFGELPRGFDYWGQGTLVTVSS VL: not shown |  | 0 | 0.52 |  | 0.58 |  | 0.04 | no binding (tested: 200 nM) | 75.3 | no binding (tested: 200 nM) |  |  |  |  |  |  |  |  |
| ATX-P-435 (antibody, human IgG1, kappa, N297A, V domains shown, Full chains (VH + hIgG1-Agly-Fc)) VH: QLQLQESGPGLVKPSETLSLTCTVSGGSISSSSSYWGWIRQPPGKGLEWIGSIYYSGSTYSNPSLKSRVTISVDTSKNQFSLKLSSVTAADTAVYYCARQYISGTEYFQYWGQGTLVTVSS VL: EIVLTQSPATLSLSPGERATLSCRASQSVSNYLAWYQQKPGQAPRLLIYDASNRATGIPARFSGSGSGTDFTLTISSLEPEDFAVYYCQQRSNWPSFGQGTRLEIKR |  | 0.01 | 0.45 |  | 0.45 |  | 0.01 | no binding (tested: 200 nM) | 77 | no binding (tested: 200 nM) |  |  |  |  |  |  |  |  |
| ATX-P-438 (antibody, human IgG1, kappa, N297A, V domains shown, Full chains (VH + hIgG1-Agly-Fc)) VH: QVQLVESGGGVVQPGRSLRLSCAASGFTFSSYGMHWVRQAPGKGLEWVAIISYDGNNKYYADSVKGRFTISRDNSKNTLYLQMNSLRDEDTAVYYCAKERGYSSSSGYYYYYMDVWGKGTTVTVSS VL: EIVLTQSPGTLSLSPGERATLSCRASQSVSRSYLAWYQQKPGQAPRLLIIGASTRATGIPDRFSGSGSGTDFTLTISRLEPEDFAVYYCQQGQVIPPTFGQGTKVEIKR |  | 0.01 | 0.08 | no binding (tested: 200 nM) | 0.6 | 7.16 | 0.42 | no binding (tested: 200 nM) |  |  | 65.3 |  |  |  |  |  |  |  |
| ATX-P-444 (antibody, human IgG1, kappa, N297A, V domains shown, Full chains (VH + hIgG1-Agly-Fc)) VH: EVQLVESGGGLVQPGGSLRLSCAASGFTLSVYDMHWVRQVSGKGLEWVSGIDPDGDTYYPGSVKGRFTISRENAKNSLYLQMNSLRVGDTAVYYCLRGEESNSSEDGFDIWGQGTMVTVSS VL: not shown |  | 0.01 | 0.14 | no binding (tested: 200 nM) | 0.7 |  |  | no binding (tested: 200 nM) |  |  |  |  |  |  |  |  |  |  |
| ATX-P-433 (antibody, IgG1, V domains shown, Full chains (VH + hIgG1-Agly-Fc)) VH: EVQLVESGGGLVQPGRSLRLSCAASGFTFDDFAMHWVRQGPGKGLEWVSGIGWNSGSIGYADSVKGRFTISRDNAKNSLYLQMNSLRAEDTALYYCAKAPDYGDYYFDYWGQGTLVTVSS VL: DIQMTQSPSSLSASVGDRVTITCRASQSISIYLNWYQQKPGTAPKLLIYAASSLQSGVPSRFSGSGSGTDFTLTISSLQPEDFAAYYCQQSYTTPLTFGGGTKVEIKR |  |  | 0.66 |  | 0.72 | 7.02 | 0.9 |  | 10.9 |  |  | 1.3 | 0.00056 | 431000 | 0.00243 | 223000 | 0.000727 | 104000 |
